Source: patent US20230265151A1, “GIP/GLP1 CO-AGONIST COMPOUNDS” (priority 2020, published 2023)
*1 amine or outer side, *2 acyl side, *3 side chain or, on linkers, in order; H or OH if unused. Where no end group is shown, it is not given here. Side-chain parts run from the residue outwards. [ ]: non-standard residue; d: D form. The star is where a group is joined. αMePhe(2-F) = C[C@](N)(Cc1ccccc1F)C(=O)O; γGlu = O=C(O)[C@H](CCC(=O)[*:2])N[*:1]; C14 diacid = O=C(O)CCCCCCCCCCCCC(=O)*; αMeY = C[C@](N)(Cc1ccc(O)cc1)C(=O)O; αMeL = CC(C)C[C@](C)(N)C(=O)O; Orn = NCCC[C@H](N)C(=O)O; AEEA = NCCOCCOCC(=O)O; Aib = CC(C)(N)C(=O)O

T1: human GIP receptor (human) (UniProt P48546)
T1 sequence (looked up): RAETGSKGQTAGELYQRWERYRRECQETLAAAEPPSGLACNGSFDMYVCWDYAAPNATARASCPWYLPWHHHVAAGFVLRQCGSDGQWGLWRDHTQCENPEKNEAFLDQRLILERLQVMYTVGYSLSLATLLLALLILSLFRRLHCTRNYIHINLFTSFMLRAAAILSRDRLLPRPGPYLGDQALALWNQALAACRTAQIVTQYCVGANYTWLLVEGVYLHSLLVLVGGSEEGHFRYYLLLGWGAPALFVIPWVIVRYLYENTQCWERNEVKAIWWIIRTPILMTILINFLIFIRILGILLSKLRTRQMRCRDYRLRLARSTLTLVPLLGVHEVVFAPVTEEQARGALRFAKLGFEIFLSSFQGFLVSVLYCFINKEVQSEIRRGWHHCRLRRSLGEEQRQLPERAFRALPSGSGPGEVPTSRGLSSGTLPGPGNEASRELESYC

T2: human GIP receptor (human, UniProt P48546 22-466)
T2 sequence (looked up): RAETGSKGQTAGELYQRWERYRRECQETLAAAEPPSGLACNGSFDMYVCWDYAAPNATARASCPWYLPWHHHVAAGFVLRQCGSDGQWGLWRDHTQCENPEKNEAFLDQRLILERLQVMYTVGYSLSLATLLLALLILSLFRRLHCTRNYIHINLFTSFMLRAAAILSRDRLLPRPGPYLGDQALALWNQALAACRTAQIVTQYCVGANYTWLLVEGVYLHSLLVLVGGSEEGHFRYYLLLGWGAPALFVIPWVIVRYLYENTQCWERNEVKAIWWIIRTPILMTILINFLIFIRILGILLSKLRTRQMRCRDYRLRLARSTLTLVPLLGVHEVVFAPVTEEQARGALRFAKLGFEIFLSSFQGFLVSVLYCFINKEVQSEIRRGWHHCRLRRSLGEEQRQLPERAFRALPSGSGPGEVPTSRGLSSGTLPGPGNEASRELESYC

T3: human GIP receptor (human, UniProt P48546 22-466)
T3 sequence (looked up): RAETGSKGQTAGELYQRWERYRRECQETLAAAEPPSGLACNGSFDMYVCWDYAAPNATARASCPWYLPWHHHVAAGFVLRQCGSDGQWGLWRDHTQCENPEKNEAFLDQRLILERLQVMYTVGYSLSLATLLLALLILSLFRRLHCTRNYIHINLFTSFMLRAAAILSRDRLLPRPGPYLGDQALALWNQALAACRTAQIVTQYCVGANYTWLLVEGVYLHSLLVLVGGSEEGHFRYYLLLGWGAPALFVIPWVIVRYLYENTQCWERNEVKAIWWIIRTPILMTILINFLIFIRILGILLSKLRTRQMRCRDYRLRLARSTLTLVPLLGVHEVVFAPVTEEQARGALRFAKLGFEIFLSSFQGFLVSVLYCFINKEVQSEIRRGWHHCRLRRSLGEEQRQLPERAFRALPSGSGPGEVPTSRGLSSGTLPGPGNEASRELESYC


Tests used:
Assay in all cases: cell-based or functional assay
[1] = biological target: human glucagon receptor (human) (UniProt P47871)
[2] = biological target: T1, human GIP receptor (human)
hGLP-1R = hGLP-1R (Homo sapiens, UniProt P43220)
human glucagon receptor [3] = biological target: human glucagon receptor (human, UniProt P47871 26-477)
human GLP-1 receptor [4] = biological target: human GLP-1 receptor (human, UniProt P43220 24-463)
human GIP receptor [5] = biological target: T2, human GIP receptor
human glucagon receptor [6] = biological target: human glucagon receptor (human, UniProt P47871 26-477); remark: listed apart in the source
Target sequence in this assay (P47871 26-477): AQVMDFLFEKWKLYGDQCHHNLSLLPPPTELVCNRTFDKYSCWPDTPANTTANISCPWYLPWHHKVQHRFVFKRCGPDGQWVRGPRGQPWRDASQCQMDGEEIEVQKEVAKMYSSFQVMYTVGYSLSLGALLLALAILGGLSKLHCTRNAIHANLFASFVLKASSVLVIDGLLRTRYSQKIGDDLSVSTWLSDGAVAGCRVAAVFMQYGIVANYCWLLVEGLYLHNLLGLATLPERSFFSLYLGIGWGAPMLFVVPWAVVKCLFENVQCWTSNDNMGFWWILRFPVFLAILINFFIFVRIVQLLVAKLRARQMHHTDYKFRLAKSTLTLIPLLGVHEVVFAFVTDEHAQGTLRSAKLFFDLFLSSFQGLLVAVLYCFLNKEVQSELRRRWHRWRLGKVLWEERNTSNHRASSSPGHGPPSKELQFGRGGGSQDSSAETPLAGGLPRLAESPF

human GLP-1 receptor [7] = biological target: human GLP-1 receptor (human, UniProt P43220 24-463); remark: listed apart in the source
human GIP receptor [8] = biological target: T3, human GIP receptor; remark: listed apart in the source

Binder | cAMP EC50 [1] | cAMP EC50 [2] | cAMP Emax [2] | cAMP EC50 (hGLP-1R) | cAMP Emax (hGLP-1R) | cAMP EC50 (1.0% HSA) (human glucagon receptor [3]) | cAMP EC50 (1.0% HSA) (human GLP-1 receptor [4]) | cAMP Emax (1.0% HSA) (human GLP-1 receptor [4]) | cAMP EC50 (1.0% HSA) (human GIP receptor [5]) | cAMP Emax (1.0% HSA) (human GIP receptor [5]) | cAMP EC50 (1.0% HSA) (human glucagon receptor [6]) | cAMP EC50 (1.0% HSA) (human GLP-1 receptor [7]) | cAMP EC50 (1.0% HSA) (human GIP receptor [8]) | cAMP Emax (1.0% HSA) (human GLP-1 receptor [7]) | cAMP Emax (1.0% HSA) (human GIP receptor [8])
YXEGTXTSDXXIXLDXKAQXXFIXXLIKGGPSSGAPPPS (Y-Aib-EGT-αMeF(2F)-TSD-4Pal-Aib-I-αMeL-LD-Orn-K((2-[2-(2-Amino-ethoxy)-ethoxy]-acetyl)2-(α-Glu)-(10-(4-carboxyphenoxy)decanoyl))AQ-Aib-Om-FI-(D-Glu)-αMeY-LIK((2-[2-(2-Amino-ethoxy)-ethoxy]-acetyl)2-(γ-Glu)-(10-(4-carboxyphenoxy)decanoyl))GGPSSGAPPPS-NH2) [Example 351] | > 9950 nM | 0.0185 nM | 102% | 0.397 nM | 100% | > 9950 nM | 5.8 nM | 91% | 0.722 nM | 67.9% | – | – | – | – | –
YXEGTXTSDYXIXLDXKAQXXFIXXLIKGGPSSGAPPPS (Y-Aib-EGT-αMeF(2F)-TSDY-Aib-I-αMeL-LD-Orn-K((2-[2-(2-Amino-ethoxy)-ethoxy]-acetyl)2-(γ-Glu)-(10-(4-carboxyphenoxy)decanoyl))AQ-Aib-Om-FI-(D-Glu)-αMeY-LIK((2-[2-(2-Amino-ethoxy)-ethoxy]-acetyl)2-(γ-Glu)-(10-(4-carboxyphenoxy)decanoyl))GGPSSGAPPPS-NH2) [Example 352] | > 9950 nM | 0.0106 nM | 98.3% | 0.262 nM | 99.5% | > 9950 nM | 5.46 nM | 93.5% | 0.277 nM | 71.3% | – | – | – | – | –
YXEGTXTSDXXIXLDXQAQXXFIKXLIKGGPSSGAPPPS (Y-Aib-EGT-αMeF(2F)-TSD-4Pal-Aib-I-αMeL-LD-Orn-QAQ-Aib-Orn-FIK((2-[2-(2-Amino-ethoxy)-ethoxy]-acetyl)2-(γ-Glu)-(10-(4-carboxyphenoxy)decanoyl))-αMeY-LIK((2-[2-(2-Amino-ethoxy)-ethoxy]-acetyl)2-(γ-Glu)-(10-(4-carboxyphenoxy)decanoyl))GGPSSGAPPPS-NH2) [Example 440] | – | – | – | – | – | – | – | – | – | – | > 10100 nM | 2.74 nM | 0.209 nM | – | –
YXEGTXTSDXXIXLDXQAQXXFIKXLIKGGPSSGAPPPS (Y-Aib-EGT-αMeF(2F)-TSD-4Pal-Aib-I-αMeL-LD-Orn-QAQ-Aib-Orn-FIK((2-[2-(2-Amino-ethoxy)-ethoxy]-acetyl)2-(γ-Glu)-CO-(CH2)14-CO2)-αMeY-LIK((2-[2-(2-Amino-ethoxy)-ethoxy]-acetyl)2-(γ-Glu)-CO-(CH2)14-CO2)GGPSSGAPPPS-NH2) [Example 443] | – | – | – | – | – | – | – | – | – | – | > 9950 nM | 133 nM | 12.2 nM | – | –
YXEGTXTSDXXIXLDXQAQXXFIKXLIKGGPSSGAPPPS (Y-Aib-EGT-αMeF(2F)-TSD-4Pal-Aib-I-αMeL-LD-Orn-QAQ-Aib-Orn-FIK(2-[2-(2-Amino-ethoxy)-ethoxy]-acetyl)2-(γ-Glu)-(11-(4-carboxyphenoxy)undecanoyl)-αMeY-LIK((2-[2-(2-Amino-ethoxy)-ethoxy]-acetyl)2-(γ-Glu)-(11-(4-carboxyphenoxy)undecanoyl)GGPSSGAPPPS-NH2)) [Example 442] | – | – | – | – | – | – | – | – | – | – | > 9950 nM | 7.63 nM | 0.687 nM | – | –
Y[Aib]EGT[αMePhe(2-F)]TSDV[Aib]I[αMeL]LD[Orn]QAQ[Aib]EFIK([AEEA-AEEA-γGlu-C14 diacid])[αMeY]LIK([AEEA-AEEA-γGlu-C14 diacid])GGPSSGAPPPS-NH2 (N-terminus assumed; SMILES CC[C@H](C)[C@H](NC(=O)[C@H](CC(C)C)NC(=O)[C@](C)(Cc1ccc(O)cc1)NC(=O)[C@H](CCCCNC(=O)COCCOCCNC(=O)COCCOCCNC(=O)CC[C@H](NC(=O)CCCCCCCCCCCCC(=O)O)C(=O)O)NC(=O)[C@@H](NC(=O)[C@H](Cc1ccccc1)NC(=O)[C@H](CCC(=O)O)NC(=O)C(C)(C)NC(=O)[C@H](CCC(N)=O)NC(=O)[C@H](C)NC(=O)[C@H](CCC(N)=O)NC(=O)[C@H](CCCN)NC(=O)[C@H](CC(=O)O)NC(=O)[C@H](CC(C)C)NC(=O)[C@](C)(CC(C)C)NC(=O)[C@@H](NC(=O)C(C)(C)NC(=O)[C@@H](NC(=O)[C@H](CC(=O)O)NC(=O)[C@H](CO)NC(=O)[C@@H](NC(=O)[C@](C)(Cc1ccccc1F)NC(=O)[C@@H](NC(=O)CNC(=O)[C@H](CCC(=O)O)NC(=O)C(C)(C)NC(=O)[C@@H](N)Cc1ccc(O)cc1)[C@@H](C)O)[C@@H](C)O)C(C)C)[C@@H](C)CC)[C@@H](C)CC)C(=O)N[C@@H](CCCCNC(=O)COCCOCCNC(=O)COCCOCCNC(=O)CC[C@H](NC(=O)CCCCCCCCCCCCC(=O)O)C(=O)O)C(=O)NCC(=O)NCC(=O)N1CCC[C@H]1C(=O)N[C@@H](CO)C(=O)N[C@@H](CO)C(=O)NCC(=O)N[C@@H](C)C(=O)N1CCC[C@H]1C(=O)N1CCC[C@H]1C(=O)N1CCC[C@H]1C(=O)N[C@@H](CO)C(N)=O) [Example 390] | – | – | – | – | – | – | – | – | – | – | > 9950 nM | 24.3 nM | 3.85 nM | 94.6% | 89.3%
